In paper PMC4751278 (2016):

Biological target: T1, Hik2-GST (full-length Histidine kinase 2 of Synechocystis sp. PCC 6803, GST-tagged) (Synechocystis sp. (strain ATCC 27184 / …, UniProt P73276))
T1 chain: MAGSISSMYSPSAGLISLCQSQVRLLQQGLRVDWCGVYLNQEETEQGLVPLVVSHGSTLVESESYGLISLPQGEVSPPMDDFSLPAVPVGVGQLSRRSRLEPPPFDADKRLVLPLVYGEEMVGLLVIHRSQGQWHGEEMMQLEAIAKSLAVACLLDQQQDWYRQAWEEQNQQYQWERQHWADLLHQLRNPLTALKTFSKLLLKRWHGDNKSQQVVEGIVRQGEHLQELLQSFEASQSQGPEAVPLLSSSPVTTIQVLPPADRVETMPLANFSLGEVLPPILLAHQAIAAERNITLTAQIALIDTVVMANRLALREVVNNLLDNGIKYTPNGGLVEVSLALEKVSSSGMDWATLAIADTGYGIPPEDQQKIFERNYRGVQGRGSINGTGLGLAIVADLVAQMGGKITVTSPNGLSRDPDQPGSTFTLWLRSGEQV
Experiment: GST pull-down

B1: Rre1_Rec-His6 (receiver domain of Response regulator 1) (protein)
chain: MAEPISLLLVDDEPGVRESVQAFLEDSGDFKVDLAANATEAWDYLQHHLPALVISDIMMPQVDGYQFLQKLREDARFQSLPVVFLTARGMTGDRIQGYQTGCDAFLSKPFDPDELEAIVRNLL
  binding result: binds
